Test results: patent US20040259075A1

Biological target: Env-CD4-CCR5 complex (Example II) (UniProt P01730)
Assay: method not stated; reference is X5-Fab

Chain of Env-CD4-CCR5 complex (Example II) (P51681 whole entry, chain 2 of 2, other chains not shown): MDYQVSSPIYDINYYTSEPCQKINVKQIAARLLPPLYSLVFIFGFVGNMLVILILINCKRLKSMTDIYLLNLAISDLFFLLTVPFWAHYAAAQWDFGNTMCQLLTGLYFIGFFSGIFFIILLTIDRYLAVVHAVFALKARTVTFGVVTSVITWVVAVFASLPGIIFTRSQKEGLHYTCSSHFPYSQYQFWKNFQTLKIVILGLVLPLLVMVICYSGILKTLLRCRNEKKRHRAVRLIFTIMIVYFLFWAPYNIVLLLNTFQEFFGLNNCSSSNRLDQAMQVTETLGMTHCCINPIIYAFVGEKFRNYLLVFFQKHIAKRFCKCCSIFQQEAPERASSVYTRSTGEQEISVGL

B1: FabS (Fab, V domains shown)
VH: VQLLEQSGAEVKKPGSSVQVSCKASGGTFSMYGFNWVRQAPGHGLEWMGGIIPIFGTSNYAQKFRGRVTFTADQATSTAYMELTNLRSDDTAVYYCARDFGPDWEDGDSYDGSGRGFFDFWGQGTLVTVSS
VL: ELVLTQSPGTLSLSAGERATLSCRASQSVSSGSLAWYQQKPGQAPRLLIYGASTRATGIPDRFSGSGSGTDFTLTIGRLEPEDLAVYYCQQYGTSPYTFGQGTKLEIKR
B1 was tested. Which fold increased affinity compared to the original X5-Fab did it give?
The fold increased affinity compared to the original X5-Fab was 5 fold.
